Molecular target: T1, receptor-binding domain (RBD) (residues 319-541) of the SARS-CoV-2 spike (S) protein (SARS-CoV-2, ancestral Wuhan-Hu-1 …, UniProt P0DTC2)
T1 construct: also called SARS-CoV-2 RBD; wild-type RBD
Experiment: BLI
Conditions: both partners purified

B1: 2-7 D54N Fab (Fab, V domains shown)
VH: QITLKESGPTLVKPTQTLTLTCTFSGFSLSTSGVGVGWIRQPPGKALEWLALIYWNDDKRYSPSLKSRLTITKDTSKNQVVLTMTNMDPVDTATYYCAHHKIERIFDYWGQGTLVTVSS
VL: QSALAQPASVSGSPGQSITISCTGTSSDVGAYNYVSWYQQHPGKAPKLMIYDVSKRPSGVSNRFSGSKSGNTASLTISGLQAEDEADYYCSSYTTSSTVFGGGTKLTVL
**Q.** B1 was tested. Which “fold weakening of KD against the wild-type Fab” value did it give?
**A.** Its value is no less than 100 fold.

Reference: article PMC9606039, “Molecular analysis of a public cross-neutralizing antibody response to SARS-CoV-2” (Cell Reports, 2022)
